T1: Myc-GFP-Ana2 (WT) co-expressed with stabilized DmPLK4^SBM-mCherry (D. melanogaster, UniProt Q9XZ31 1-420, phosphorylated in cells by co-expressed DmPLK4^SBM-mCherry; phosphoserine at 38 (a DmPLK4 site by the cited work))
T1 construct: Ana2, D. melanogaster; it rests on the S38A mutant; also called WT Ana2; phosphorylated Ana2; source: Drosophila S2 cells, transfected together with DmPLK4^SBM-mCherry, in lysate; not shown: Myc, N-terminal, kept; GFP, N-terminal, kept
T1 sequence (looked up): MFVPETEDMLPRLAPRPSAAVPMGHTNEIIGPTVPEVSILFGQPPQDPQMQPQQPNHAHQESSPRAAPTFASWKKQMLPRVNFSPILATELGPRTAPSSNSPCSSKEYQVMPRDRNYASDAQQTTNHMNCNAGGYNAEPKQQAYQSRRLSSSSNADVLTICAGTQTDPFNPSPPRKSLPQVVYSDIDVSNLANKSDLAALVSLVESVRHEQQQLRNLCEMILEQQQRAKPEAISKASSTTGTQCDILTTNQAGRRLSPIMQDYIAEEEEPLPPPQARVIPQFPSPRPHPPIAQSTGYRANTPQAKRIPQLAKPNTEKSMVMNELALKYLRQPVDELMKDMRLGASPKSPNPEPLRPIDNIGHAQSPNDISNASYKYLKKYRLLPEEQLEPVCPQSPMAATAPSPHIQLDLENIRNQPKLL

T2: Myc-GFP-STIL (wild type) phosphorylated in cells by co-expressed kinase active PLK4^Δ24-mCherry (human, UniProt Q15468 1-1287, phosphoserine at 428 and at 1116 (phosphorylated in cells by co-expressed kinase active PLK4^Δ24-mCherry; shown with pS428 and pS1116 antibodies))
T2 construct: STIL, human; Further PLK4 sites may be phosphorylated (84 sites were found in vitro); also called WT STIL; phosphorylated STIL; source: HEK293FT, transfected together with kinase active PLK4^Δ24-mCherry, in lysate; not shown: Myc, N-terminal, kept; GFP, N-terminal, kept
T2 sequence (looked up): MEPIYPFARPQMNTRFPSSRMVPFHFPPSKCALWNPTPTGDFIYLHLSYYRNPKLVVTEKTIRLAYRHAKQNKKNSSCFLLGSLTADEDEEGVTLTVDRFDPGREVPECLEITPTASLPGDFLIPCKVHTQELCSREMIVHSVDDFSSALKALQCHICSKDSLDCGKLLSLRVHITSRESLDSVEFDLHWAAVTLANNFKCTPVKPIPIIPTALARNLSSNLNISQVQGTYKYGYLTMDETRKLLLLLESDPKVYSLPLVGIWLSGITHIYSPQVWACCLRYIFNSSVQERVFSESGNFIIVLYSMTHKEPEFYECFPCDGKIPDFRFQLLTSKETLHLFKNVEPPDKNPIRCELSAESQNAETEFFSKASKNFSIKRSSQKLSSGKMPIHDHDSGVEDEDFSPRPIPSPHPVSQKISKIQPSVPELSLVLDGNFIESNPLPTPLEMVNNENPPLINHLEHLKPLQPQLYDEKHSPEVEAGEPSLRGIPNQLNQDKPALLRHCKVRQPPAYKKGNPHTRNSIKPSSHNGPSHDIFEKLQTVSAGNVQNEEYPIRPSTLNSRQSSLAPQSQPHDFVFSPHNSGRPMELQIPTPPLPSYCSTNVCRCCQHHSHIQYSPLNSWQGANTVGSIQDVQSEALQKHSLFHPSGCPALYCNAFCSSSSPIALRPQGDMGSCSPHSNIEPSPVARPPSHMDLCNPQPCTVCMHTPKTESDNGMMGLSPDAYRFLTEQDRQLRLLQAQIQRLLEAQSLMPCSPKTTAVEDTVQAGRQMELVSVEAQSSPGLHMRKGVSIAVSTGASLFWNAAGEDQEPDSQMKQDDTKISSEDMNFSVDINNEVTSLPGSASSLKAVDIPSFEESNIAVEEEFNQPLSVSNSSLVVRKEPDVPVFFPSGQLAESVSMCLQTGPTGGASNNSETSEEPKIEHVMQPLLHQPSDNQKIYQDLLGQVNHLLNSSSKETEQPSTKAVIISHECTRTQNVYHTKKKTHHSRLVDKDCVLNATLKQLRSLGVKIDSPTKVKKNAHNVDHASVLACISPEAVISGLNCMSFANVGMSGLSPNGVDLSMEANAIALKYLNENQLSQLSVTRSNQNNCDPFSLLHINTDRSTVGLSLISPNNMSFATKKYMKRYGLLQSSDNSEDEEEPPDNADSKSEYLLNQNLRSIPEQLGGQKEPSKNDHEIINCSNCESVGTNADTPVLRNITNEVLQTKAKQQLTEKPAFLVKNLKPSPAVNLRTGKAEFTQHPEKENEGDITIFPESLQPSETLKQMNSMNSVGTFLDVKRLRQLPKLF


Assays:
[1] = molecular target: T1, Myc-GFP-Ana2 (WT) co-expressed with …; assay: co-IP; Drosophila S2 cells transfected with Myc-GFP-Ana2 and Flag-DmSas4 in the presence or absence of DmPLK4^SBM-mCherry; harvested 48 hr later; co-immunoprecipitation and immunoblot; details: partners not purified
[2] = molecular target: T2, Myc-GFP-STIL (wild type) phosphorylated …; assay: co-IP; HEK293FT cells co-transfected, with kinase active or kinase dead PLK4^Δ24-mCherry where stated; lysis buffer 10 mM Tris pH 7.5, 0.1% Triton X-100, 250 mM NaCl, 1 mM EDTA, phosphatase inhibitors; Myc-GFP-STIL captured on beads coupled to GFP-binding protein; immunoblot; details: partners not purified

Binder	fold increase in the amount of DmSas4 bound, with against without DmPLK4^SBM [1] [fold]	fold increase in the amount of CPAP bound, kinase active against kinase inactive PLK4 [2] [fold]
Flag-DmSas4 (natural protein, D. melanogaster, UniProt Q9VI72 1-901, looked up, Sas-4 (DmSas4), D. melanogaster; also called CPAP orthologue DmSas4; source: Drosophila S2 cells, transfected, in lysate; not shown: FLAG, N-terminal, kept) MQEAGESPVGMPLSQEAIAQRLAALSRWQDEQKRLLQERQSNHRVLLGLEQRNMYKMLGLLHQETESHENSVLEEWDEEHSIQMPRLAADPDEHEPEISMADPQPAKPKRPFLRRGEGLKQRFKINPDQLRLENLPRYKFANAHPQFRTPQMKKGILKKQVKSPPNPAPPPAPKPSAQLDDLNEQRFQQMLIGKNACSSTPDLKSSYASSTTASSTSPRVRFVEQKSRAGQTTHADDEASSEASPMTGVCWAKVLDTQSIKPAQIQRRSAQIRVEDDSNVSIFELLEQKATEGNIDMNSSCIRTFMARKDQRRRVADDSDHIVVTQQVRQMRLQPQVDQMLVQELQEGDEEDTEPSSDQTLTMTPIQVGNTKVRVRFSDSNDTHEYSDATSLNDGSNIQLFEQFKSALFQALEQKKKSSPSKESDEPITKDLQEKANLVRTRLEELETEIATFKEQNAQLLRLRQQHELEKAKCTQDHMEAMERVHDEKIQAEIYLHDERMKIEEERRKFEQQMRLQKSNANSKEKKEIAALKQEVEGLQLQLKQKEQAHVSAQARLRAQLRASEKEQRNYRDEIELLRKENKRLEQELVKIGRENNSKMLQEINRNIARLAPKVLPSATMSDILDENGRRTQSLDGTAGKPAKQREAQNRRQSSGSAQVRSRSRSLSRNKKTPYALDESYASSSSVESEEVQPPVTAPKAATPPPAANSSSDFKREITNADGSKDIWYPNGNLKKISADGMNLRMLYFNKDIKETNIREGTVKYYYAETNTWHTSYLDGLEILEFPNGQTEHRRKDGTVEIHFPNNSIKIVDPSDTEKLEEWRYADGTHLVQLRNGDKILNLPNGQKEIHTKLNKRREYPDGTVKLVYPDGSQETRYSNGRVRLKDKDGKLIMDTDYAKY	> 6	
FLAG-CPAP (natural protein, human, UniProt Q9HC77 1-1338, looked up, CPAP (CENPJ), human; also called CENPJ; source: HEK293FT, transfected, in lysate; not shown: FLAG, N-terminal, kept) MFLMPTSSELNSGQNFLTQWMTNPSRAGVILNRGFPILEADKEKRAAVDISTSFPIKGTHFSDSFSFINEEDSLLEEQKLESNNPYKPQSDKSETHTAFPCIKKGPQVAACHSAPGHQEENKNDFIPDLASEFKEGAYKDPLFKKLEQLKEVQQKKQEQLKRQQLEQLQRLMEEQEKLLTMVSGQCTLPGLSLLPDDQSQKHRSPGNTTTGERATCCFPSYVYPDPTQEETYPSNILSHEQSNFCRTAHGDFVLTSKRASPNLFSEAQYQEAPVEKNNLKEENRNHPTGESILCWEKVTEQIQEANDKNLQKHDDSSEVANIEERPIKAAIGERKQTFEDYLEEQIQLEEQELKQKQLKEAEGPLPIKAKPKQPFLKRGEGLARFTNAKSKFQKGKESKLVTNQSTSEDQPLFKMDRQQLQRKTALKNKELCADNPILKKDSKARTKSGSVTLSQKPKMLKCSNRKSLSPSGLKIQTGKKCDGQFRDQIKFENKVTSNNKENVTECPKPCDTGCTGWNKTQGKDRLPLSTGPASRLAAKSPIRETMKESESSLDVSLQKKLETWEREKEKENLELDEFLFLEQAADEISFSSNSSFVLKILERDQQICKGHRMSSTPVKAVPQKTNPADPISHCNRSEDLDHTAREKESECEVAPKQLHSLSSADELREQPCKIRKAVQKSTSENQTEWNARDDEGVPNSDSSTDSEEQLDVTIKPSTEDRERGISSREDSPQVCDDKGPFKDTRTQEDKRRDVDLDLSDKDYSSDESIMESIKHKVSEPSRSSSLSLSKMDFDDERTWTDLEENLCNHDVVLGNESTYGTPQTCYPNNEIGILDKTIKRKIAPVKRGEDLSKSRRSRSPPTSELMMKFFPSLKPKPKSDSHLGNELKLNISQDQPPGDNARSQVLREKIIELETEIEKFKAENASLAKLRIERESALEKLRKEIADFEQQKAKELARIEEFKKEEMRKLQKERKVFEKYTTAARTFPDKKEREEIQTLKQQIADLREDLKRKETKWSSTHSRLRSQIQMLVRENTDLREEIKVMERFRLDAWKRAEAIESSLEVEKKDKLANTSVRFQNSQISSGTQVEKYKKNYLPMQGNPPRRSKSAPPRDLGNLDKGQAASPREPLEPLNFPDPEYKEEEEDQDIQGEISHPDGKVEKVYKNGCRVILFPNGTRKEVSADGKTITVTFFNGDVKQVMPDQRVIYYYAAAQTTHTTYPEGLEVLHFSSGQIEKHYPDGRKEITFPDQTVKNLFPDGQEESIFPDGTIVRVQRDGNKLIEFNNGQRELHTAQFKRREYPDGTVKTVYANGHQETKYRSGRIRVKDKEGNVLMDTEL		> 7

— publication PMC6570480, “PLK4 promotes centriole duplication by phosphorylating STIL to link the procentriole cartwheel to the microtubule wall” (eLife, 2019)
